Experimental data from patent publication US20020155575.
“And” between values parts separate entries of the source, which are not always exact repeats. Identical values can stand only once.

Experiments:
[1] = target: T1, trypsin inhibitor type IV-0 (Ovo-inhibitor), Sigma T-1886 (UniProt P10184)
T1 sequence: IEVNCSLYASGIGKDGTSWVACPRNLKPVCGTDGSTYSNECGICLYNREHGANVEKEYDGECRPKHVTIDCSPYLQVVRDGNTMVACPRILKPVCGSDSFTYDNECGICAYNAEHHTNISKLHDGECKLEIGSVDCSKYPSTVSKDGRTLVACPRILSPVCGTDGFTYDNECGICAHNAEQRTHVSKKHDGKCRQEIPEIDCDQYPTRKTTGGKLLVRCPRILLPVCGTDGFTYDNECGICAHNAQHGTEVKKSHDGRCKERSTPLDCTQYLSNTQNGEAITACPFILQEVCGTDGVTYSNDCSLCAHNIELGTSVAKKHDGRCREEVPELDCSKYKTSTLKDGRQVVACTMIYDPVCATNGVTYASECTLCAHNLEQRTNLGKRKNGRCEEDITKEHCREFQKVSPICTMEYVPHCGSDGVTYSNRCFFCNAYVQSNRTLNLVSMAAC

[2] = target: T2, trypsin inhibitor type IV-0 (Ovo-inhibitor), Sigma T-1886, P10184
T2 chain: T1 sequence

“subtilisin 309 variant S99SD + S99A + S216SDP” was tested, and the “Residual Activity (%)” value [1] was 35.0%.

For “subtilisin 309 variant S99SD + S99A + N155NA”, the “Residual Activity (%)” value [1] was 7.4%.

For “subtilisin 309 variant L217LP + S99SD + S99A”, the “Residual Activity (%)” value [1] was 97.0%.

With subtilisin 309 variant L42LN the “Residual Activity (%)” value [1] was 69.2%.

With “subtilisin 309 variant S99D + S101R + S103A + V104I + G160S + A194P + V199M + V205I + *216aE” the “Residual Activity (%)” value [1] was 25.4%.

For “subtilisin 309 variant S99D + S101R + S103A + V104I + G160S + A194P + V199M + V205I + *216aD”, the “Residual Activity (%)” value [1] was 24.0%.

With “subtilisin 309 variant S99SD + S99A + N155ND” the “Residual Activity (%)” value [1] was 10.7% and 7.1%.

“subtilisin 309 variant S99SD + S99A + N155NR” was tested, and the “Residual Activity (%)” value [1] was 6.5%.

B1: SAVINASE (subtilisin 309 from B. lentus) (protein)
chain: AQSVPWGISRVQAPAAHNRGLTGSGVKVAVLDTGISTHPDLNIRGGASFVPGEPSTQDGNGHGTHVAGTIAALNNSIGVLGVAPSAELYAVKVLGASGSGSVSSIAQGLEWAGNNGMHVANLSLGSPSPSATLEQAVNSATSRGVLVVAASGNSGAGSISYPARYANAMAVGATDQNNNRASFSQYGAGLDIVAPGVNVQSTYPGSTYASLNGTSMATPHVAGAAALVKQKNPSWSNVQIRNHLKNTATSLGSTNLYGSGLVNAEAATR
For B1, the “Residual Activity (%)” value [2] was less than 5%.
